# Numbering of substitutions follows the chain as printed. Like-named read-outs stand apart in the source and are kept apart here.
# B1: huB1H2-V10 (antibody, human IgG1, kappa, V domains shown)
# VH: QVQLVQSGAEVKKPGASVKVSCKASGYTLTNYVMHWVRQAPGQGLEWIGFIIPFNDGTKYNEHFKGRVTITSDTSISTAYMQLSSLRSEDTAVYYCARYDFEGYFDVWGQGTLVTVSS
# VL: DIQMTQSPSSLSASVGDRVTITCSASQDITNFLNWYQQKPGKAPKLLIYSTSRLHSGVPSRFSGSGSGTDFTLTISSLQPEDIATYYCQQYSNLPWTFGQGTKVEIKR
# notes: Humanized IgG1/kappa; cell supernatant in the Octet assay, purified antibody in Biacore, ELISA and FACS
# B2: BCMA BM1, full-length antibody containing the BCMA-binding portion of GSK2857916 (antibody, human IgG1, kappa, V domains shown)
# VH: QVQLVQSGAEVKKPGSSVKVSCKASGGTFSNYWMHWVRQAPGQGLEWMGATYRGHSDTYYNQKFKGRVTITADKSTSTAYMELSSLRSEDTAVYYCARGAIYDGYDVLDNWGQGTLVTVSS
# VL: B1 VL with T30S, F32Y, S50Y, R53N, I83F, S92R, N93K, V104L
# notes: Prepared in house from the full heavy and light chains; also called benchmark; positive control
# B3: huB1H2-V33 (antibody, human IgG1, kappa, V domains shown)
# VH: B1 VH
# VL: B1 VL with L73F
# notes: as for B1
# B4: mouse anti-BCMA monoclonal antibody B1H2 (antibody, V domains shown)
# VH: EVQLQQSGPELVKPGASVKMSCKASGYTLTNYVMHWMKQKPGQGLEWIGFIIPFNDGTKYNEHFKGKATLTSDKSSNTAYMVLSSLTSEDSAVYYCARYDFEGYFDVWGAGTTVTVSS
# VL: DIQMTQTTSSLSASLGDRVTISCSASQDITNFLNWYQQKPDGTVKLLIYSTSRLHSGVPSRFSGSGSGTDYSLTISNLEPEDIATYYCQQYSNLPWTFGGGTNLEIK
# notes: Hybridoma-derived mouse mAb purified on Protein A; also called Mouse B1H2; mouse antibody B1H2
# B5: chimeric B1H2 antibody (antibody, human IgG1, kappa, V domains shown)
# VH: B4 VH
# VL: DIQMTQTTSSLSASLGDRVTISCSASQDITNFLNWYQQKPDGTVKLLIYSTSRLHSGVPSRFSGSGSGTDYSLTISNLEPEDIATYYCQQYSNLPWTFGGGTNLEIKR
# notes: Mouse variable domains fused to human IgG1 / kappa constant regions, made in 293F cells
# Key:
# [1] = target: recombinant human BCMA-his protein (Acro biosystems, Cat #BCA-H522Y) (human) (UniProt Q02223); assay: SPR Biacore, antibody captured by anti-human IgG on CM5, BCMA-his flowed
# [2] = target: recombinant human BCMA-his protein (Acro biosystems, Cat #BCA-H522Y) (human) (UniProt Q02223); assay: SPR Biacore T200, antibody captured on Protein G chip, BCMA-his flowed
# [3] = target: recombinant human BCMA-his protein (Acro biosystems, Cat #BCA-H522Y) (human) (UniProt Q02223); assay: BLI Octet RED96, antibody on AHC sensor, BCMA-his in solution
# [4] = target: recombinant human BCMA-his protein (Acro biosystems, Cat #BCA-H522Y) (human) (UniProt Q02223); assay: capture ELISA: antibody captured on the plate, biotin-labeled human BCMA-his detected with streptavidin-HRP
# [5] = target: recombinant human BCMA-his protein (Acro biosystems, Cat #BCA-H522Y) (human) (UniProt Q02223); assay: competitive ELISA: antibody pre-mixed with biotin-labeled human BCMA-his, competitor coated BCMA BM1 (self-competition)
# [6] = target: recombinant human BCMA-his protein (Acro biosystems, Cat #BCA-H522Y) (human) (UniProt Q02223); assay: capture ELISA: antibody captured on the plate, biotin-labeled human BCMA-his detected with streptavidin-HRP; remark: listed apart in the source
# [7] = target: recombinant human BCMA-his protein (Acro biosystems, Cat #BCA-H522Y) (human) (UniProt Q02223); assay: competitive ELISA: antibody pre-mixed with biotin-labeled human BCMA-his, competitor coated BCMA BM1 (self-competition); remark: listed apart in the source
# [8] = target: recombinant human BCMA-his protein (Acro biosystems, Cat #BCA-H522Y) (human) (UniProt Q02223); assay: competitive ELISA: coated human BCMA-his, blocked ligand biotin-labeled BAFF-Fc
# [9] = target: recombinant human BCMA-his protein (Acro biosystems, Cat #BCA-H522Y) (human) (UniProt Q02223); assay: as above; remark: listed apart in the source
# [10] = target: human BCMA on U266 cells (human) (UniProt Q02223); assay: cell-based or functional assay
# human BCMA on U266 cells [11] = target: T1, human BCMA on U266 cells (human, UniProt Q02223 1-184); assay: cell-based or functional assay
# T1 sequence (looked up): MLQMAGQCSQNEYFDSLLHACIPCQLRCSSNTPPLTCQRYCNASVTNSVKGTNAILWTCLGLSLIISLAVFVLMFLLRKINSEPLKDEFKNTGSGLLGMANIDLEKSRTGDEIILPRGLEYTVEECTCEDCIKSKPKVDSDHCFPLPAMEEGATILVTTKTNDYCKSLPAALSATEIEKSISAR
# [12] = target: T2, cynomolgus BCMA-his protein (Acro biosystems, Cat #BCA-052H7) (cynomolgus monkey, UniProt A0A2K5UD97 1-53); assay: indirect ELISA on coated cynomolgus BCMA-his
# T2 construct: Bought; also called cynomolgus monkey BCMA protein; not shown: his tag
# [13] = target: T3, human BCMA on 293F-BCMA cells (human, UniProt Q02223 1-184); assay: cell based binding FACS on 293F cells expressing human BCMA, MFI
# T3 construct: Stably expressed on 293F cells prepared in house; also called 293F cells expressing human BCMA; Full length human BCMA
# T3 sequence: T1 sequence (looked up)
# [14] = target: recombinant human BCMA-his protein (Acro biosystems, Cat #BCA-H522Y) (human) (UniProt Q02223); assay: competitive ELISA: antibody pre-mixed with biotin-labeled human BCMA-his, competitor coated BCMA BM1
# human BCMA on U266 cells [15] = target: T1, human BCMA on U266 cells; assay: cell based binding FACS on U266 cells, MFI
# [16] = target: recombinant human BCMA-his protein (Acro biosystems, Cat #BCA-H522Y) (human) (UniProt Q02223); assay: SPR Biacore, antibody captured on CM5 chip, BCMA-his flowed
# [17] = target: recombinant human BCMA-his protein (Acro biosystems, Cat #BCA-H522Y) (human) (UniProt Q02223); assay: SPR Biacore T200, antibody captured by anti-mouse IgG on CM5, BCMA-his flowed
# [18] = target: recombinant human BCMA-his protein (Acro biosystems, Cat #BCA-H522Y) (human) (UniProt Q02223); assay: competitive ELISA: antibody pre-mixed with biotin-labeled human BCMA-his, competitor coated BCMA BM1; remark: listed apart in the source
# T2 sequence (A0A2K5UD97 entry or part of it): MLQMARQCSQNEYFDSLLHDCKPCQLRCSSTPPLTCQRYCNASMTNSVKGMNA
Molecule,Kd [1] [nM],koff [1] [s⁻¹],kon [1] [M⁻¹ s⁻¹],Kd [3] [nM],koff [3] [s⁻¹],kon [3] [M⁻¹ s⁻¹],EC50 [4] [nM],IC50 [8] [nM],"IC50 (nM), cell killing activity of antibody-DT3C conjugate on U266 cells (internalization assay) (human BCMA on U266 cells [11]) [nM]","Max inhibition on cell viability (%), antibody-DT3C conjugate on U266 cells (human BCMA on U266 cells [11]) [%]",EC50 [12] [nM],EC50 [13] [nM],IC50 [14] [nM],also measured
"BCMA BM1, full-length antibody containing the BCMA-binding portion of GSK2857916",0.578,0.000141,244000,0.436,0.000125,286000,0.569,12.6,–,–,–,–,–,Kd [2]: 0.742 nM; koff [2]: 0.000245 s⁻¹; kon [2]: 330000 M⁻¹ s⁻¹; IC50 [5]: 2.89 nM; EC50 [6]: 1.11 nM; IC50 [7]: 2.64 nM; IC50 [9]: 10.7 nM
isotype control antibody (as isotype control-DT3C conjugate),–,–,–,–,–,–,–,–,–,–,–,–,–,"Max inhibition on cell viability (%), antibody-DT3C conjugate on U266 cells [10]: 17.8%"
B1,0.289,0.00788,2.73e+07,2.02,0.000733,363000,0.47,10.2,0.19,99.7,~25400,1.2,1.51,–
B2,–,–,–,–,–,–,–,–,1.55,97,0.186,8.86,–,EC50 (human BCMA on U266 cells [15]): 17.7 nM
B3,0.349,0.00341,9.76e+06,0.349,0.00341,9.76e+06,0.439,7.05,0.14,99.9,~176,0.865,1.45,–
B4,–,–,–,–,–,–,0.177,8.28,–,–,31.4,0.613,0.282,Kd [16]: 0.0757 nM; koff [16]: 0.000783 s⁻¹; kon [16]: 1.03e+07 M⁻¹ s⁻¹; EC50 [6]: 0.702 nM; Kd [17]: 0.203 nM; koff [17]: 0.0011 s⁻¹; kon [17]: 5.42e+06 M⁻¹ s⁻¹; EC50 (human BCMA on U266 cells [15]): 0.885 nM; IC50 [18]: 1.03 nM; IC50 [9]: 6.09 nM
B5,0.0839,–,–,0.673,–,–,0.226,–,–,–,190,0.953,–,–

# Source: US20230055711A1 (BIOSION, published 2023)
